One block for each sequence: values may come before it.
Assays:
[1] = molecular target: HLA-A*33:01; test: IEDB peptide-MHC binding, purified MHC/competitive/radioactivity; ≥ and ≤ were set here for values at or beyond the usual limits of such assays
[2] = molecular target: HLA-A*31:01; test: as above
[3] = molecular target: HLA-A*68:01; test: as above
[4] = molecular target: HLA-A*66:01; test: as above
[5] = molecular target: HLA-A*30:01; test: as above; conditions: source organism: Mus musculus
[6] = molecular target: HLA-A*11:01; test: as above
[7] = molecular target: HLA-A*03:01; test: as above
[8] = molecular target: HLA-B*53:01; test: as above
[9] = molecular target: HLA-B*42:01; test: as above
[10] = molecular target: HLA-B*07:02; test: as above
[11] = molecular target: HLA-A*30:01; test: IEDB peptide-MHC binding, purified MHC/competitive/radioactivity; filed as Kd, often an IC50 or EC50 that approximates it; ≥ and ≤ were set here for values at or beyond the usual limits of such assays; conditions: source organism: Homo sapiens
[12] = molecular target: HLA-A*11:01; test: as above; conditions: source organism: Mus musculus
[13] = molecular target: HLA-A*33:01; test: as above; conditions: source organism: Homo sapiens
[14] = molecular target: HLA-B*51:01; test: as above; conditions: source organism: Mus musculus
[15] = molecular target: HLA-B*54:01; test: as above; conditions: source organism: Mus musculus
[16] = molecular target: HLA-B*35:01; test: as above; conditions: source organism: Mus musculus
[17] = molecular target: HLA-B*35:03; test: IEDB peptide-MHC binding, purified MHC/competitive/radioactivity; ≥ and ≤ were set here for values at or beyond the usual limits of such assays; conditions: source organism: Mus musculus
[18] = molecular target: HLA-A*66:01; test: IEDB peptide-MHC binding, purified MHC/competitive/radioactivity; filed as Kd, often an IC50 or EC50 that approximates it; ≥ and ≤ were set here for values at or beyond the usual limits of such assays; conditions: source organism: Mus musculus

Sequence: AINSEMFLR
IC50 ([1]; source organism: Mus musculus): 1.08 µM | IC50 ([2]; source organism: Mus musculus): 0.067 µM | IC50 ([3]; source organism: Mus musculus): 0.109 µM | IC50 ([4]; source organism: Mus musculus): 4.55 µM | IC50 [5]: 49.8 µM | IC50 ([6]; source organism: Mus musculus): 0.209 µM | IC50 ([7]; source organism: Mus musculus): 0.428 µM

Sequence: LALEGSLQKR
Kd [11]: ≥ 50 µM | IC50 ([1]; source organism: Homo sapiens): 3.27 µM | IC50 ([2]; source organism: Homo sapiens): 38.4 µM | IC50 ([3]; source organism: Homo sapiens): 0.066 µM | IC50 ([4]; source organism: Homo sapiens): 0.515 µM | IC50 ([6]; source organism: Homo sapiens): 34.5 µM | IC50 ([7]; source organism: Homo sapiens): 17.5 µM

Sequence: LALEVARQKR
Kd [12]: ≥ 50 µM | IC50 ([1]; source organism: Mus musculus): 9.14 µM | IC50 ([2]; source organism: Mus musculus): 10.8 µM | IC50 ([3]; source organism: Mus musculus): 12.6 µM | IC50 ([4]; source organism: Mus musculus): 13 µM | IC50 [5]: 43 µM | IC50 ([7]; source organism: Mus musculus): 43.6 µM

Sequence: PLALEGSLQ
Kd [13]: ≥ 50 µM | Kd [11]: ≥ 50 µM | IC50 ([2]; source organism: Homo sapiens): 39.4 µM | IC50 ([3]; source organism: Homo sapiens): 41.5 µM | IC50 ([4]; source organism: Homo sapiens): 48.5 µM | IC50 ([6]; source organism: Homo sapiens): 37.1 µM | IC50 ([7]; source organism: Homo sapiens): 20.9 µM

Sequence: SPGDLQTLAL
Kd [14]: ≥ 50 µM | Kd [15]: ≥ 50 µM | Kd [16]: ≥ 50 µM | IC50 ([8]; source organism: Mus musculus): 11 µM | IC50 ([9]; source organism: Mus musculus): 0.035 µM | IC50 ([10]; source organism: Mus musculus): 0.0044 µM | IC50 [17]: 16.1 µM

Other lines, results leading:

IC50 ([8]; source organism: Homo sapiens): 15.5 µM | IC50 ([9]; source organism: Homo sapiens): 6.07 µM | IC50 ([10]; source organism: Homo sapiens): 0.462 µM
Sequence: GPGAGSLQPLAL

Kd [18]: ≥ 50 µM | IC50 ([1]; source organism: Mus musculus): 25.5 µM | IC50 ([2]; source organism: Mus musculus): 13 µM | IC50 ([3]; source organism: Mus musculus): 13.4 µM | IC50 [5]: 23.3 µM | IC50 ([6]; source organism: Mus musculus): 3.33 µM | IC50 ([7]; source organism: Mus musculus): 0.605 µM
Sequence: TLALEVARQK
